Assay results taken from the DeepSol protein solubility set.

Assay: soluble on expression in E. coli; label from the status in PepcDB or PDB records
With “MGSDKIHHHHHHMADNLALRMRPRNINEVIGQQHLVGNGKIIDRMVAANMLSSMILYGPPGIGKTSIASAIAGTTKYAFRTFNATVDSKKRLQEIAEEAKFSGGLVLLLDEIHRLDKTKQDFLLPLLENGNIIMIGATTENPFFSVTPAIRSRVQIFELEPLSNEDIKKAIQLAISDKERGFPFLVTIDDEALDFIVTATNGDLRSAYNSLDLAVMSTSPNEDGSRHISLETMENSLQCSYITMDKNGDGHYDILSALQKSIRGSDVNASLHYAARLVEAGDLPSLARRLTIIAYEDIGLANPEAQIHTVTALEAAQRIGFPEARILIANIVVDLALSPKSNSAYLAMDAALADLRRSGNLPIPRHLRDGHYSGSKTLGNARDYKYPHAYPEKWVKQQYLPDKLVGHNYFEANETGKYERALGSNKERIDKLSD” the “soluble on expression in E. coli” value was “not soluble”. In the case of “MSLSKTLSMLALLPFAAQVFAAPAEFWYSHGGATGSAIADLCRSFNAQREDGDRLHCIRQGSYEQTLQKTVAAYRAGIGPALVEIYDVATPDMLLGGATLPVEAIMAGHQRAYSDDTFLPALRRYYSDDHGALAAQPFAASTAVLYTHRNALAAAGISEPPATWEAFATALRALKKNGHACPVVSEFSPWIWLEQTSAAQGTEVAVRAAGTERYQFDKGAHLRLMNDLAQWTAEGLVVHEDSTRSGQQALAFATDDCAMLIDSTGAWNIVHSTLKSDIDVTALPIYANTQRRTNAPGGSSLWVMRGHAARDYRLVSEFLAFVLQPDNQLVFSARTGYLPVTQAAAARLQSAGREPSAVMVGLAALHDIDGQPSKPLRCGFITLMRLVWSQEMENALAGRQSVEHALRQTTLRANELLSLFQQMHQAQASNESDGATEGHHHHHH”, the “soluble on expression in E. coli” value is reported as “soluble”. For “MSLDSRPKLPQTLSRGWGDQLIWTQTYEEALYKSKTSNKPLMIIHHLDECPHSQALKKVFAENKEIQKLAEQFVLLNLVYETTDKHLSPDGQYVPRIMFVDPSLTVRADITGRYSNRLYAYEPADTALLLDNMKKALKLLKTELEGHHHHHH”, the “soluble on expression in E. coli” value was “soluble”. For “MSLEFGRELPGKRDPQARLKDYKELYLDFSATQIKNQAARCMNCGVPFCHSGCPLGNIIPEFNDAVYRNDWEEAAEILFSTNNFPEFTGRICPAPCEASCVLGINKPPVTIENIEKSIVETAFEKGILKPNPPKKRTGKTVAVVGSGPAGLAAAAQLNSAGHTVTVFERADQVGGLLRYGIPDFKLEKWVIDRRVKLMEEEGVIFKTNTNVGVTVKAKDIVKEFDAVVLTGGSTVGRDLPIPGRQFKGVHFAMEFLSQQNKRVANIKPEIDHTGEAYKNGDLLATAKNVVVIGGGDTGSDCVGTSNRHGAKSVLQFELMPKPPENKNETTPWPNWPMILRTSTSHEEGCDRLWSITTKEFIGDADGNLTGLKIAEMGWVTAPDSKLPKYQELPGTERVIPCELTLLAMGFLHPQHAGMLNELGVEYDERGNIKANGKYQTNVDKVFTAGDMRRGQSLVVWAISEGREAARNVDIFLMGTTSLEAKDHGMLDTVYAEGHHHHHH”, the “soluble on expression in E. coli” value was “soluble”. With “MSLITLKELAKQLNVSVSTVSKALHDAKDISEGTKKRIKEAAQLYNYRPNKTALALKVNKTNTIGVIIPDILNPFFAQVLHGIEDYATEHNYDTIVCVSHDQLKKEAQSLDLLMQGRVDGFILSLSSESLAQDNFLHIDQIALNKKGLVLFDRTTDQVDCDKVVIDDKRSVYDATRILISKGKTKIAFVSNIEDLNLGQLRKEGYENALRDHGIEVNYSLNLDLTGSSDPHGLIKAFLSMQEIDGVISADNTSSLMFKSILKSERPDTNSEIPLIGFSDEKNSLLSYPRIDYIDQNAMKIGSKAAELLINRLESKDLTSKPITFEMPTEIHLYEGHHHHHH” the “soluble on expression in E. coli” value was “soluble”. In the case of “EKAEDCWELQISPELLAHGRQKILDLLNEGSARDLRSLQRIGPKKAQLIVGWRELHGPFSQVEDLERVEGITGKQMESFLKANILGLAAGQ”, the “soluble on expression in E. coli” value is reported as “soluble”. With “MAIYTVKALITDPIDEILIKTLREKGIQVDYMPEISKEELLNIIGNYDIIVVRSRTKVTKDVIEKGKKLKIIARAGIGLDNIDTEEAEKRNIKVVYAPGASTDSAVELTIGLMIAAARKMYTSMALAKSGIFKKIEGLELAGKTIGIVGFGRIGTKVGIIANAMGMKVLAYDILDIREKAEKINAKAVSLEELLKNSDVISLHVTVSKDAKPIIDYPQFELMKDNVIIVNTSRAVAVNGKALLDYIKKGKVYAYATDVFWNEPPKEEWELELLKHERVIVTTHIGAQTKEAQKRVAEMTTQNLLNAMKELGMI” the “soluble on expression in E. coli” value was “soluble”. With “SSESKQDEDSGTSASLSKASKETSCKRQNREGSWDSSLVMKKPKQNQVSTVTDSEVALVSAYLEQRRVRRHSQFLRVNQIQQDSDTTECDSEESNSGASSWKESESDHHLSPANIKRRKSVSRQRDMENYEVRQRPCLHCKAMRTREWLTRHFPPSASVTTPMKGEIQEENLTPGTNTKFSKF” the “soluble on expression in E. coli” value was “soluble”. For “QVSDEDVMLMIRQGAKKGVFESVEYEMISRIFRMSDKRASALMTPRNEIEWLDLERPDEELVARIKASGRSRFPVAKGSLDELQGVVRSLDLVNFSLSSKGSIREAIRASMKPPLFVPESVPAFHVLELFKKNRAHMALVIDEHGSVQGAITLTDVLESIVGDVPADDMEGD”, the “soluble on expression in E. coli” value was “not soluble”. In the case of “MRTNSEIISLIQSKVEERKMSMSELARNVGIAKSTMSRYFNKTREFPLNRADDFAKALNISTEFLLGIDLNSEVDGSELLGIYRELEEQRRVIVLDTAKEQLEEQTKIINFSDKKTDIEDIFEVKGTTFAAAASGFGRGFEADDYDTYTVYTDEEPPHYDYAIGIRGDSMLPKYEQGDMLYIVDKGMSTYSGQLCIVVHNGNTYFKKVYTEHDGLRLVSLNKKYSDIFIGYPPAEDTYIKIYDVVGSFTPIEF”, the “soluble on expression in E. coli” value is reported as “not soluble”. In the case of “NTGFDINGMVSKIVSAERVPKQQRIDNERTNIDTSISAYGRLRESLDTMKNLMTQFRQEKAFAVRKVDTSNEQVVSATATTEAIAGNYSVDVLQLAQ”, the “soluble on expression in E. coli” value is reported as “not soluble”. For “MAHHHHHHMQTGPFAAVTRVPDHVRNMILNEIASENIWLFDRGRCEAVTVGDMRSSSFSIPMAESPPAVGCELDNNEHLLLYDLMRVRNGQVMFENDHFSRIRQNCILTAPTACDAANVSEDEDLGKLSTYIEGVRSTTRDFIKCNPWENGDVNLKFVTWVLPSQLSDVSTAERRSELLRTLSYAVYYVTSFFPPEDWYEEGTRYAMLYDAQRHTPNAKILQVPLRERAKALQQTTNAFEVLLVSDNRRHYLVPEGSRSNYLIVSGDESLLCSLEEDILVGITLRVARRAAACARLPPLRHRKLVLGDICLAKSIAMLGTSPGVLPIKEIQVFYDEESKQNFLLAMEDYMQDKDEEIQRAVINVRGRILNDDGLLRLESPSCDTLKRLRAAYEAEALL”, the “soluble on expression in E. coli” value was “not soluble”. In the case of “MGTIGKKAAKGASVKFSESSTQAVIKATYLQVFGRDVYEGQRLKVQEIKLENGEISVRDFVRALAKSDLFRKLYWTPFYVCKAIEYIHRRLLGRPTYGRQENNKYFDIASKKGLYAVVDAILDSLEYTETFGEDTVPYERYLTPAGLEHHHHHH”, the “soluble on expression in E. coli” value is reported as “not soluble”. With “MGSDKIHHHHHHMSSEQIIASLKELVATPENPGKVLTDPADLDNYGKDWTKIYPPKPLAIVLPKTTEQVQALVKFANENQVALVPSGGRTGLSAGAVAANGEVVVAFDNMNQILDFNASDRTVRCQAGVVTEQLQTFAEENGLYYPVDFASAGSSQLGGNLSTNAGGIKVIRWGMSRDWVAGLKVVTGKGDVLDLNKDLAKNNTGYDLRHLFIGAEGTLGFITEATMKLTRKPDDLTVLVLGLNDLTNTMDVLQAFQKKLDLTAYEFFSHQAMGHVLAHGQVQAPFETEAPYYALLEFEAVSDQVMDDAMALFEQCVEEGWVLDGVISQSETQAQNLWQLRERISESIAPRIPYKNDISVVVSKVPGFLQEIDNVVTEHYPDFEIIWFGHIGDGNLHLNILKPEDMAKEDFFEKCQQVNKWVFEIVERYQGSVSAEHGVGMTKKPYLQYTRSEAEIAYLRGIKQVFDPNNIMNPGKIFD” the “soluble on expression in E. coli” value was “not soluble”. In the case of “MAHHHHHHMNDDNTLALLYEGINLIFDKWTILRLAVTNNWGGINSEDKKKKLIEYVHNFVTNNNAKNKLCDYLRDEMSVLFNVDIEDHSDIEIADLILDLYQNLKKKNYDILEKIKNIQIYDISCSQEKNLIQNYEQGDEENMEDEYSSSNYSEYSNEESLDKE”, the “soluble on expression in E. coli” value is reported as “soluble”. In the case of “MGSDKIHHHHHHMIPIKVSMRNLSSLTIAGGSTISSIDIPLNPLGVPPSTIKGTMRTAVHNLLPNGYTSCGEVEPESIREAHKNGVCDVCKLFGYPDSLTGCFTIDVSKTDYRTSYITRVSIDDKTQRAKEGSLFTQQIILPNSDISFTVYYNCNDERLFKLLLYSILDLRYWRLGRNTMIDVKVNNVEEICKSVKCDEEINGILNQLSRYLWEAENK”, the “soluble on expression in E. coli” value is reported as “not soluble”. With “MSLKGDHAGKDRLIYKLQQTDSSYRYTNGTQGTAWTLIMENPLKGYGYGDDIYHAIYNKRVVDFPSWKFRQSIGPHNEGHHHHHH” the “soluble on expression in E. coli” value was “soluble”. For “MAHHHHHHMQPMVLPYVDRKPPISKVMDARVLVWRESERMLRNGEGAAECSYAQKLQVLRSQQLADARKYMDTSAAMRSVKPVLATSSVDADDDDEFCRKRSRESEGPSVDEIRRFEGKLGETLALELTLWSLRRGSHGGVRSQRYTTALHALQDTQKLLRKTLQQMEEINALRFLEQQQFLKVNSEKARLLHVRLRNVRALENILRGNGKRRGSTLLATLE”, the “soluble on expression in E. coli” value was “not soluble”. For “MSLDNDIFKLNVYIKNIDTSKSNLRYTEGYLQSLTNILTRAKEIAIQGASGTYESDDKKMISKEVNALLEDVVAIANAKGPDGYSIFSGTKIDSEAFKVTRENKISKTSKDGAGPQIIKVEYNGNQAEKKTEVYNDIHMSNNYPGNVIFFLQNQNIISSINTNGFAVKENTKIYIDNIEIGLTAGDTALDIVAKINESSAPVEASIDPVLNSLSIKTTTPHQIWITEEKESNVLQTLGILTKNNDTKLPPYNLSSSTEVRSRSIFDALIELRDTLYNNKEELVGSRSLAEIDESLKRLLISVADLGAKENRLDRSYERISKEAADMKEDMIQYTDLDVTKAITNLNMASLAYQVSIGISAKIMQTTLLDFIKEGHHHHHH”, the “soluble on expression in E. coli” value was “not soluble”. For “MGSDKIHHHHHHMTKHASARKFPPRARFLPKCEPSLYHERRSVSARASGPTTVIDPKTVTDVTNDTLSHYALPAYPAEQFCVDIGANAGDPIGILDDLVMDDIYELTSDARLRRLAFGVSTEGTITLHSESEMGQDGARLHLDCAVTLMPDLGSAIEALIAVEVDNEGLIARLYLIPQAPLAQGTGYRLVRASREPVWTRLAQLSCVAFSRGTHITMGTGEQRPIEMLRAGDRVLTRNSGARRITWVGHTTVRAVGEMAPILIRQGALNNARDLLVSPDHRLMIYQRSDALGAGRNELMIRARDLVNGDSVVVQDGGFVDYYQILFDRHHIIYAEGIAAESMLVDPVTRPALPEEVQQRLTQPRRHGTRGDHGLEIRRPMLSHPDTVDLLKRASLR”, the “soluble on expression in E. coli” value was “not soluble”. In the case of “MAIRRLRTIFVSLLLGLAASATQAADRSDRNVTAKLEGRFEWDFALFDNDTRGTPNRSNNEIRRFWLDVTGKVFAFDYTIEGNFTNLQDKFKGKSIEMGDVYLRHDFGNTGTLTLGQFKQHFSLDDRTSPDYGQFLERSGGANTLAPEYHKGVSWKATHQNTTWWVSAYSLDSISLSNVNGRGLGGRGTWSPDTPEGDVLHLGLSLAHQRYDHPGSDGMTALSIRPLPAGHLSDNSGITLAHFANGRDTKVNRWALEYAQVRGPLSWQSEYIGGAFNDGMQRATVQSAYGFVSWFVTGESRTYDRKTGRFTRIKTLHNPRGALELALRYDRMWGNQHHNNQPNFLNASTASCTLGVNWYIKPNLRLMLNLIDSRNRDRLAGTVLDHTRALTGRLHYDF”, the “soluble on expression in E. coli” value is reported as “not soluble”.
